Publication PMC4481513, “Structural and Functional Analysis of Human HtrA3 Protease and Its Subdomains” (PLoS ONE, 2015)
Each block holds one molecule with its values, some of them ahead of it. *1 amine or outer side, *2 acyl side, *3 side chain or, on linkers, in order; H or OH if unused. The star is where a group is joined. Benzoyl(5-NH,2-NO2) = O=C(c1cc(N[*:1])ccc1[N+](=O)[O-])[*:2]; Mca = COc1ccc2c(CC(=O)*)cc(=O)oc2c1

Key:
[1] = biological target: β-casein from bovine milk (bovine); assay: SEC; Superose 12 HR 10/30, room temperature, 50 mM Na2HPO4/NaH2PO4 pH 8.0, 250 mM NaCl; single proteins, HtrA3 proteins at 3 mg/ml, 50 μl loaded
[2] = biological target: ΔN-HtrA3 (residues 130–453–His6), proteolytically active (human) (UniProt P83110)
[3] = biological target: ΔN-HtrA3S (residues 130–357–His6), proteolytically active (human) (UniProt P83110)
[4] = biological target: ΔN-HtrA3-ΔPDZ (residues His6–122–349), proteolytically active (human) (UniProt P83110)
[5] = biological target: the molecule itself; assay: crystal structure; ΔN-HtrA3 S305A, sitting-drop vapor diffusion, 1 M sodium/potassium phosphate buffer pH 5.0, 16°C; three molecules per asymmetric unit; 3.27 Å

ΔN-HtrA3-ΔPDZ (residues His6–122–349), proteolytically active (human), sequence (P83110 122-349, stated change not applied): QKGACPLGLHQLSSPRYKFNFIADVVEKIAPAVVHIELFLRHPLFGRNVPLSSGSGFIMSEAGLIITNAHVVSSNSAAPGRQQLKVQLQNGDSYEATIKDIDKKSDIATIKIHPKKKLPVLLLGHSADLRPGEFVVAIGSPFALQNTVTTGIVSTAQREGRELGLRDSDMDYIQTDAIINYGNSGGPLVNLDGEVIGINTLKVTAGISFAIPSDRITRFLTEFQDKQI

stoichiometry N [1]: 3
Molecule: β-casein from bovine milk (natural protein)

Km [μM] of cleavage of the peptide Ala(Mca)IRRVSYSF-ANB-NH2 (0.02 to 6 μM), 50 nM enzyme, 30°C, Michaelis-Menten fit [2]: 0.958 µM | Km [μM] of cleavage of the peptide Ala(Mca)IRRVSYSF-ANB-NH2 (0.02 to 6 μM), 50 nM enzyme, 30°C, Michaelis-Menten fit [3]: 0.74 µM | Km [μM] of cleavage of the peptide Ala(Mca)IRRVSYSF-ANB-NH2 (0.02 to 6 μM), 50 nM enzyme, 30°C, Michaelis-Menten fit [4]: 0.878 µM
B1: Fluorescent substrate Ala(Mca)IRRVSYSF–ANB–NH2 (peptide)
peptide: Mca-AIRRVSYSF-{Benzoyl(5-NH,2-NO2)-NH2}
SMILES: CC[C@H](C)[C@H](NC(=O)[C@H](C)NC(=O)Cc1cc(=O)oc2cc(OC)ccc12)C(=O)N[C@@H](CCCNC(=N)N)C(=O)N[C@@H](CCCNC(=N)N)C(=O)N[C@H](C(=O)N[C@@H](CO)C(=O)N[C@@H](Cc1ccc(O)cc1)C(=O)N[C@@H](CO)C(=O)N[C@@H](Cc1ccccc1)C(=O)Nc1ccc([N+](=O)[O-])c(C(N)=O)c1)C(C)C

B2: ΔN-HtrA3_(S305A) (residues 130–453–His6), proteolytically inactive N-terminally truncated HtrA3L with protease and PDZ domains (domain or fragment, human, UniProt P83110 130-453, looked up)
chain: LHQLSSPRYKFNFIADVVEKIAPAVVHIELFLRHPLFGRNVPLSSGSGFIMSEAGLIITNAHVVSSNSAAPGRQQLKVQLQNGDSYEATIKDIDKKSDIATIKIHPKKKLPVLLLGHSADLRPGEFVVAIGSPFALQNTVTTGIVSTAQREGRELGLRDSDMDYIQTDAIINYGNAGGPLVNLDGEVIGINTLKVTAGISFAIPSDRITRFLTEFQDKQIKDWKKRFIGIRMRTITPSLVDELKASNPDFPEVSSGIYVQEVAPNSPSQRGGIQDGDIIVKVNGRPLVDSSELQEAVLTESPLLLEVRRGNDDLLFSIAPEVVM
notes: human HtrA3 long isoform (HtrA3L), residues 130-453: serine protease domain and PDZ domain, catalytic serine changed to alanine; Chain A of the structure runs to residue 459, that is into the His tag; also called ΔN-HtrA3-His6; pPG1; source: E. coli BL21(DE3) clpP::Cm r, purified (Ni-NTA; before crystallization also Superdex 200 gel filtration); not shown: His6, C-terminal, kept
stoichiometry N [5]: 3
